Assay [1] deals with T1, human PSMA antigen (Acro, Cat. No. PSA-H52H3; Lys44-Ala750) (human, UniProt Q04609 44-750).
T1 construct: range 44-750
The experiment in a line: SPR (Biacore T200, 25 C), antibody captured on Protein A, 1:1 model. As for the experimental part:
Experiment 5: Antibodies were affinity-captured using a Protein A biosensor chip, and human PSMA was then allowed to flow over the chip surface. The association and dissociation curves were obtained by real-time detection of reaction signals using a Biacore T200 instrument at 25° C. After the dissociation in each experimental cycle was complete, the biosensor chip was regenerated by washing with Glycine 1.5. Data fitting was performed using a 1:1 Model. The human PSMA antigen was purchased from Acro (Cat. No. PSA-H52H3; Lys44-Ala750), and the hCD3D&CD3E complex antigen was purchased from Sino Biological (Cat. No. CT038-H2508H).

Assay [2] concerns the target T2, human PSMA on cells (Cho-hPSMA, CHO-K1 cells overexpressing full-length human PSMA) (human, UniProt Q04609 1-750).
T2 construct: whole, on cells; also called cell surface PSMA; PSMA-expressing Lncap cells
Briefly: flow cytometry, Cho-hPSMA; antibody at 100 µg/mL. In general terms: Flow cytometry measures light scatter and fluorescence of single cells or particles in a stream.

For assay [3], the target named is T2, human PSMA on cells (Cho-hPSMA, CHO-K1 …). Briefly: flow cytometry, Cho-hPSMA; antibody at 0.8 µg/mL.
For assay [4] the target is unchanged. The experiment in a line: flow cytometry, Cho-hPSMA; antibody at 20 µg/mL.
Assay [5] shares this target. The experiment in a line: flow cytometry, Cho-hPSMA; antibody at 4 µg/mL.
For assay [6] the target is unchanged. Briefly: cell ELISA, Cho-hPSMA; antibody at 6.25 nM. Here is the method:
(§1) Experiment 2: Cells were cultured and inoculated onto a cell plate using the same method as in Experiment 1. The antibodies were serially diluted, and the antibody solutions were added to the cell plate at 100 μL/well. The plate was incubated at 4° C. for 1 h and then washed. An HRP-Goat Anti-human IgG (H+L) secondary antibody dilution (1:8000) was added to the cell plate at 100 μL/well, and the plate was incubated at 4° C. for 1 h and then washed by centrifugation. After color development with TMB, the reaction was stopped with 0.1 M sulfuric acid, and OD450 values were measured.
(§2) Experiment 4: The binding activity of bispecific antibodies was measured using the method of experiment 2.
For orientation: An ELISA detects its analyte on a solid surface through an enzyme-linked reagent.

The target is the same in assay [7]. Briefly: cell ELISA, Cho-hPSMA; antibody at 1.5625 nM. As for the experimental part: as §1, §2
Assay [8] shares this target. Briefly: cell ELISA, Cho-hPSMA; antibody at 25 nM. As for the experimental part: as §1, §2
Assay [9] shares this target. Briefly: flow cytometry, Cho-hPSMA; antibody at 20 nM. Here is the method: (§3) Experiment 1: Cho-hPSMA was cultured in F12 medium with 10% FBS. The medium to which cells were inoculated was incubated in a 37° C., 5% CO₂ incubator for 2 days, and cells were added to a cell plate at 1×10⁵ cells/well and washed by centrifugation. Antibodies were serially diluted, and the antibody solutions were added to the cell plate at 100 μL/well. The plate was incubated at 4° C. for 1 h and then washed. An AF488-Goat Anti-human IgG Fc fluorescent secondary antibody dilution (1:400) was added to the cell plate at 100 μL/well, and the plate was incubated at 4° C. for 1 h and then washed. PBS was added to the cell plate at 100 μL/well before plate reading.
(§4) Experiment 3: The binding activity of bispecific antibodies was measured using the method of experiment 1.

For assay [10] the target is unchanged. The experiment in a line: cell-based or functional assay.
For assay [11] the target is unchanged. Briefly: flow cytometry, Cho-hPSMA; antibody at 0.8 nM. Here is the method:
as §3, §4

Assay [12] shares this target. The experiment in a line: flow cytometry, Cho-hPSMA; antibody at 100 nM. Here is the method: as §3, §4
The target is the same in assay [13]. Briefly: flow cytometry, Cho-hPSMA; antibody at 4 nM. As for the experimental part:
as §3, §4

This is an account of results in patent US20250043022A1 (JIANGSU HENGRUI PHARMACEUTICALS, published 2025).

Positions count from the first letter of the chain named.

Usually Kd stands for the equilibrium constant for the complex coming apart. A lower Kd goes with tighter binding. Usually koff stands for the rate constant with which the complex falls apart. The term kon denotes the second-order rate constant of association.

T2 sequence (Q04609 whole entry): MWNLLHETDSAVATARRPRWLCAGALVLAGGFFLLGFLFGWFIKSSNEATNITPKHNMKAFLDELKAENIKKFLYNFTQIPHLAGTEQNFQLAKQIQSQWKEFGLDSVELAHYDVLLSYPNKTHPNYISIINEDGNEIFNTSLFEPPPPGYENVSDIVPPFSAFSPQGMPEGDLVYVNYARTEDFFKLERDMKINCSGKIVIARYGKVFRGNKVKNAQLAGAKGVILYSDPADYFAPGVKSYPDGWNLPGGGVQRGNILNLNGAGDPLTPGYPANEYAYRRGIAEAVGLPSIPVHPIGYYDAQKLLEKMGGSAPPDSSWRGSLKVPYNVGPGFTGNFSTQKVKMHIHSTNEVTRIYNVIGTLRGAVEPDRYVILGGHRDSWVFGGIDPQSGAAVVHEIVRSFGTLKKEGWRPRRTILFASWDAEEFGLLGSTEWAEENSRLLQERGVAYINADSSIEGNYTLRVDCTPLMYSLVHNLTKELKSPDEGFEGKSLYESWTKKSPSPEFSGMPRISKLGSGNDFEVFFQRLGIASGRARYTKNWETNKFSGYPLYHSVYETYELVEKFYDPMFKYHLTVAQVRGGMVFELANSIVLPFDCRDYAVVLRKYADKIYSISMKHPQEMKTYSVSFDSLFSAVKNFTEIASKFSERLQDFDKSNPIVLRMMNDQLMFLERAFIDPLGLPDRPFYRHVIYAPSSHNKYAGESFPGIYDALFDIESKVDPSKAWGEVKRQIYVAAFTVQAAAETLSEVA
T1 sequence (Q04609 44-750 limits assumed): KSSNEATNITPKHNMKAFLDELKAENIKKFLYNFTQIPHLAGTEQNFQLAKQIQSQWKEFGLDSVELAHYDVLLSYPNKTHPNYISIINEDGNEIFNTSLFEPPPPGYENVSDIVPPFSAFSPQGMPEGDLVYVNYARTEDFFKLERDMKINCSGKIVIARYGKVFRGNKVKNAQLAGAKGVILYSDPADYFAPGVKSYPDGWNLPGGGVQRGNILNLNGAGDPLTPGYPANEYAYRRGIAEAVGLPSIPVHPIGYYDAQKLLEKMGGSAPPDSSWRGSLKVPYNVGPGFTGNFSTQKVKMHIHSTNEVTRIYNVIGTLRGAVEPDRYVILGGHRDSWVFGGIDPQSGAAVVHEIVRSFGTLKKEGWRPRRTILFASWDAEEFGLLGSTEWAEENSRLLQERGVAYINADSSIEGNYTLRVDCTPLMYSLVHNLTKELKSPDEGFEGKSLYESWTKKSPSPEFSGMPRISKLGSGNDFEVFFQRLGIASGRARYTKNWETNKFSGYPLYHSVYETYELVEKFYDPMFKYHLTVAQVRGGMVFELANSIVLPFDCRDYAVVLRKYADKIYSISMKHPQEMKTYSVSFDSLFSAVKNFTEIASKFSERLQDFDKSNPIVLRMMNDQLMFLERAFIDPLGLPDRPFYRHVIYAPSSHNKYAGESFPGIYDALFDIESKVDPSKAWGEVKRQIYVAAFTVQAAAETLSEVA

B1: 31-F1 (bispecific antibody)
heavy 1: not shown
light 1: DIQMTQSPSSLSASVGDRVTITCRASGNIHNYLAWYQQKPGKAPKLLIYNAETLADGVPSRFSGSGSGTDFTLTISSLQPEDFATYYCQHFWSTPPTFGGGTKVEIKRTVAAPSVFIFPPSDEQLKSGTASVVCLLNNFYPREAKVQWKVDNALQSGNSQESVTEQDSKDSTYSLSSTLTLSKADYEKHKVYACEVTHQGLSSPVTKSFNRGEC
heavy 2: not shown
light 2: not shown
notes: PSMA x CD3, Format 1
The molecule B1 had a Kd in assay [1] of 1860 pM. In [1], this molecule showed a koff of 1.84e-05 s⁻¹. The molecule also showed a kon in assay [1] of 9890 M⁻¹ s⁻¹. In addition, the fluorescence intensity in assay [2] amounted to 16500; in assay [3], 2520; in assay [4], 16200; in [5] it was 7970.

B2: 27-F4 (bispecific antibody)
heavy: not shown
light: QIVLTQSPDFQSVTPKEKVTIQCSASSSVSYMYWYQQKPDQSPKPWIYRTSNLASGVPSRFSGSGSGTDYTLTINSLEAEDAATYYCQQYHSYPLTFGQGTKLEIKRTVAAPSVFIFPPSDEQLKSGTASVVCLLNNFYPREAKVQWKVDNALQSGNSQESVTEQDSKDSTYSLSSTLTLSKADYEKHKVYACEVTHQGLSSPVTKSFNRGEC
notes: PSMA x CD3, Format 4
In the case of B2, the absorbance amounted to 0.732 OD450 in assay [6], 0.419 OD450 in [7] and 1.05 OD450 in assay [8].

B3: 46-F4 (bispecific antibody)
heavy: not shown
light: DIQMTQSPSSLSASVGDRVTITCKASQSVGTAVAWYQQKPGKAPKLLIYSASSRYTGVPSRFSGSGSGTDFTLTISSLQPEDFADYFCHQYSSYPLTFGGGTKVEIKRTVAAPSVFIFPPSDEQLKSGTASVVCLLNNFYPREAKVQWKVDNALQSGNSQESVTEQDSKDSTYSLSSTLTLSKADYEKHKVYACEVTHQGLSSPVTKSFNRGEC
notes: PSMA x CD3, Format 4
Consider B3, for which the fluorescence intensity in [9] was 20800; in assay [11], 9490; in [12], 21300; in assay [13], 18700. Also, in assay [10], the “cytotoxic activity against Lncap, EC50” value stood at 2.85 pM. Further, the “cytotoxic activity against Lncap, Maximum lysis rate %” value in [10] amounted to 63.5%.

B4: 46-F2 (bispecific antibody)
heavy 1: not shown
light 1: B3 light
heavy 2: not shown
light 2: not shown
notes: PSMA x CD3, Format 2
Turning to B4, the fluorescence intensity stood at 23100 in [9], 8330 in [11], 23000 in assay [12] and 19400 in [13].

B5: 46-F1 (bispecific antibody)
heavy 1: not shown
light 1: B3 light
heavy 2: not shown
light 2: not shown
notes: PSMA x CD3, Format 1
Turning to B5, the fluorescence intensity in assay [9] was found to be 28600; in assay [11], 3930; in assay [12], 31600; in assay [13], 12300.

B6: 43-F4 (bispecific antibody)
heavy: not shown
light: DIQMTQSPSSLSASVGDRVTITCKASQNVHTSVAWYQQKPGKSPKLLIYSASNRYSGVPSRFSGSGSGTDFTLTISSLQPEDVATYYCQQYSSYPLTFGQGTKLEIKRTVAAPSVFIFPPSDEQLKSGTASVVCLLNNFYPREAKVQWKVDNALQSGNSQESVTEQDSKDSTYSLSSTLTLSKADYEKHKVYACEVTHQGLSSPVTKSFNRGEC
notes: PSMA x CD3, Format 4
In the case of B6, the “cytotoxic activity against Lncap, EC50” value in assay [10] came out at 6.21 pM. In addition, the “cytotoxic activity against Lncap, Maximum lysis rate %” value in assay [10] turned out to be 48%. In addition, the absorbance turned out to be 0.527 OD450 in [6], 0.254 OD450 in assay [7] and 1.04 OD450 in assay [8].

B7: 43-F3 (bispecific antibody)
heavy: not shown
light 1: B6 light
light 2: not shown
notes: PSMA x CD3, Format 3
With B7, the “cytotoxic activity against Lncap, EC50” value in assay [10] came out at 7.39 pM. For the same molecule, the “cytotoxic activity against Lncap, Maximum lysis rate %” value in assay [10] came to 49.5%. Further, the absorbance in assay [6] amounted to 0.441 OD450; in assay [7], 0.227 OD450; in [8], 0.721 OD450.

B8: 15-F4 (bispecific antibody)
heavy: not shown
light: B6 light with N28G, H30D, S32A, S50W, N53T, Y55H, S56T, S60D, S93R
notes: PSMA x CD3, Format 4
As to B8, the fluorescence intensity in assay [9] amounted to 31400; in assay [11] it was 8280; in assay [12], 32200; in assay [13] it was 22000. The “cytotoxic activity against Lncap, EC50” value in assay [10] worked out at 9.63 pM. Moreover, in assay [10], the “cytotoxic activity against Lncap, Maximum lysis rate %” value stood at 63.2%.
